Measured values published in patent US20190315873A1 (AGOMAB THERAPEUTICS, published 2019).

B1: 71D6 llama-mouse chimeric mAb (mouse IgG1/lambda) (antibody)
heavy: ELQLVESGGGLVQPGGSLRLSCAASGFTFSSYGMSWVRQAPGKGLEWVSAINSYGGSTSYADSVKGRFTISRDNAKNTLYLQMNSLKPEDTAVYYCAKEVRADLSRYNDYESYDYWGQGTQVTVSSAKTTPPSVYPLAPGSAAQTNSMVTLGCLVKGYFPEPVTVTWNSGSLSSGVHTFPAVLQSDLYTLSSSVTVPSSPRPSETVTCNVAHPASSTKVDKKIVPRDCGCKPCICTVPEVSSVFIFPPKPKDVLTITLTPKVTCVVVDISKDDPEVQFSWFVDDVEVHTAQTQPREEQFNSTFRSVSELPIMHQDWLNGKEFKCRVNSAAFPAPIEKTISKTKGRPKAPQVYTIPPPKEQMAKDKVSLTCMITDFFPEDITVEWQWNGQPAENYKNTQPIMNTNGSYFVYSKLNVQKSNWEAGNTFTCSVLHEGLHNHHTEKSLSHSPGK
light: QPVLNQPSALSVTLGQTAKITCQGGSLGARYAHWYQQKPGQAPVLVIYDDDSRPSGIPERFSGSSSGGTATLTISGAQAEDEGDYYCQSADSSGSVFGGGTHLTVLGQPKSSPSVTLFPPSSEELETNKATLVCTITDFYPGVVTVDWKVDGTPVTQGMETTQPSKQSNNKYMASSYLTLTARAWERHSSYSCQVTHEGHTVEKSLSRADCS
notes: also called 71D6 (mouse format)
B2: 76H10 llama-human chimeric mAb (human IgG1/lambda) (antibody, V domains shown)
VH: QLQLVESGGGLVQPGGSLRVSCTASGFTFNTYYMTWVRQAPGKGLEWVSDINSGGGTYYADSVKGRFTISRDNAKNTLYLQMNSLKPEDTALYYCVRVRIWPVGYDYWGQGTQVTVSS
VL: QAVVTQEPSLSVSPGGTVTLTCGLSSGSVTTSNYPGWFQQTPGQAPRTLIYNTNNRHSGVPSRFSGSISGNKAALTITGAQPEDEADYYCSLYTGSYTTVFGGGTHLTVLQ
B3: 71G3 llama-mouse chimeric mAb (mouse IgG1/lambda) (antibody)
heavy: QVQLVESGGGLVQPGGSLRVSCAASGFTFSTYYMSWVRQAPGKGLEWVSDIRTDGGTYYADSVKGRFTMSRDNAKNTLYLQMNSLKPEDTALYYCARTRIFPSGYDYWGQGTQVTVSSAKTTPPSVYPLAPGSAAQTNSMVTLGCLVKGYFPEPVTVTWNSGSLSSGVHTFPAVLQSDLYTLSSSVTVPSSPRPSETVTCNVAHPASSTKVDKKIVPRDCGCKPCICTVPEVSSVFIFPPKPKDVLTITLTPKVTCVVVDISKDDPEVQFSWFVDDVEVHTAQTQPREEQFNSTFRSVSELPIMHQDWLNGKEFKCRVNSAAFPAPIEKTISKTKGRPKAPQVYTIPPPKEQMAKDKVSLTCMITDFFPEDITVEWQWNGQPAENYKNTQPIMNTNGSYFVYSKLNVQKSNWEAGNTFTCSVLHEGLHNHHTEKSLSHSPGK
light: QAVVTQEPSLSVSPGGTVTLTCGLSSGSVTTSNYPGWFQQTPGQAPRTLIYNTNSRHSGVPSRFSGSISGNKAALTIMGAQPEDEADYYCSLYPGSTTVFGGGTHLTVLGQPKSSPSVTLFPPSSEELETNKATLVCTITDFYPGVVTVDWKVDGTPVTQGMETTQPSKQSNNKYMASSYLTLTARAWERHSSYSCQVTHEGHTVEKSLSRADCS
notes: also called 71G3 (mouse format)
B4: 71G2 llama-mouse chimeric mAb (mouse IgG1/lambda) (antibody)
heavy: EVQLQESGGGLVQPGGSLRLSCAASGFTFSIYDMSWVRQAPGKGLEWVSTINSDGSSTSYVDSVKGRFTISRDNAKNTLYLQMNSLKPEDTAVYYCAKVYGSTWDVGPMGYGMDYWGKGTLVTVSSAKTTPPSVYPLAPGSAAQTNSMVTLGCLVKGYFPEPVTVTWNSGSLSSGVHTFPAVLQSDLYTLSSSVTVPSSPRPSETVTCNVAHPASSTKVDKKIVPRDCGCKPCICTVPEVSSVFIFPPKPKDVLTITLTPKVTCVVVDISKDDPEVQFSWFVDDVEVHTAQTQPREEQFNSTFRSVSELPIMHQDWLNGKEFKCRVNSAAFPAPIEKTISKTKGRPKAPQVYTIPPPKEQMAKDKVSLTCMITDFFPEDITVEWQWNGQPAENYKNTQPIMNTNGSYFVYSKLNVQKSNWEAGNTFTCSVLHEGLHNHHTEKSLSHSPGK
light: SSALTQPSALSVSLGQTARITCQGGSLGSSYAHWYQQKPGQAPVLVIYGDDSRPSGIPERFSGSSSGGTATLTISGAQAEDEDDYYCQSTDSSGNTVFGGGTRLTVLGQPKSSPSVTLFPPSSEELETNKATLVCTITDFYPGVVTVDWKVDGTPVTQGMETTQPSKQSNNKYMASSYLTLTARAWERHSSYSCQVTHEGHTVEKSLSRADCS
notes: also called 71G2 (mouse format)

What was measured:
human MET ECD [1] = molecular target: T1, human MET ECD (human, UniProt P08581 25-932); test: ELISA: MET ECD immobilized (100 ng/well), mAb in human IgG1/lambda format in solution (0-40 nM), HRP anti-human Fc
T1 construct: range 1-932; recombinant ECD made by standard protein engineering; also called hMET; human MET extracellular domain
Source text: (§1) To this end, we investigated whether our human/mouse equivalent anti-MET antibodies cross-reacted with MET from other species, including rat (Rattus norvegicus) and cynomolgus monkey (Macaca fascicularis). […] Human and mouse MET ECD were used as controls. A restricted panel of antibodies representative of both SEMA binders (71D6, 71C3, 71D4, 71A3, 71G2) and PSI binders (76H10, 71G3) was selected. The 5D5 prior art antibody was used as control. MET ECD proteins were immobilized in solid phase (100 ng/well in a 96-well plate) and exposed to increasing concentrations (0-40 nM) of antibodies (with human constant regions) in solution. […] We conclude that the 71D6, 71C3, 71D4, 71A3, 71G2, 76H10 and 71G3 antibodies bind with similar affinity and capacity to human MET, mouse MET, rat MET and simian MET, at least as determined by ELISA.

[2] = molecular target: monkey MET ECD (cynomolgus monkey); test: as above
monkey MET ECD (cynomolgus monkey), sequence (A0A2K5 entry or part of it limits assumed): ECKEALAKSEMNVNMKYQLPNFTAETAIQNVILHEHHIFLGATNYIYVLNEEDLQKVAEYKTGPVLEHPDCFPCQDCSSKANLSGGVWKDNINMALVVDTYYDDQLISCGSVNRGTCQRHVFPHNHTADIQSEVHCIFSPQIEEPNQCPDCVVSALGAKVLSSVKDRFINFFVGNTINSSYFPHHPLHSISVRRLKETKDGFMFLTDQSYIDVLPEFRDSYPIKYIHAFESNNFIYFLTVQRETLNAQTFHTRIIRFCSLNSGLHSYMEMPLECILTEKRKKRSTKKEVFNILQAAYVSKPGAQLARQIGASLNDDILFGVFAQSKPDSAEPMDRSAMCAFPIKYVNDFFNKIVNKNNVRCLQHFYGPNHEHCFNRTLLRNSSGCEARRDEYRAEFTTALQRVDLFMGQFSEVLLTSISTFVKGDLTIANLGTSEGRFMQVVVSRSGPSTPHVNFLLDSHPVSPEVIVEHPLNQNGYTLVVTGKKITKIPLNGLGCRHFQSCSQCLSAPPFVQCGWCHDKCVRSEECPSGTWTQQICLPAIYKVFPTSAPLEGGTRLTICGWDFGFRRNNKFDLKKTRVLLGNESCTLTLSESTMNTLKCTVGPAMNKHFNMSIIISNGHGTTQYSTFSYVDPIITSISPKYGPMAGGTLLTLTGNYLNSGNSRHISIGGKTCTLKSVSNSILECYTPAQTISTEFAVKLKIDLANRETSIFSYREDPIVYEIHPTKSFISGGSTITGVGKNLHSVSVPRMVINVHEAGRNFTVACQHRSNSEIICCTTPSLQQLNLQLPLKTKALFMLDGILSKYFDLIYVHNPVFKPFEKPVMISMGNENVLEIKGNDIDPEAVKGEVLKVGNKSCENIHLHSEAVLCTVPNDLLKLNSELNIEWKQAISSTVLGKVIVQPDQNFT

human MET ECD [3] = molecular target: T1, human MET ECD; test: ELISA on MET ECD
[4] = molecular target: T2, mouse MET on MLP29 mouse liver precursor cells (mouse, UniProt P16056 25-1379); test: flow cytometry, MLP29 cells
T2 construct: whole, on cells; also called native mouse MET

[5] = molecular target: T2, mouse MET on MLP29 mouse liver …; test: cell-based or functional assay
[6] = molecular target: T3, human MET on A549 human lung carcinoma cells (human, UniProt P08581 25-1390); test: cell-based or functional assay
[7] = molecular target: T3, human MET on A549 human lung carcinoma …; test: flow cytometry, A549 cells
human MET ECD [8] = molecular target: T1, human MET ECD; test: ELISA, mouse-format mAb on MET ECD
Method: (§2) In order to directly determine whether—and to what extent—the prior art agonistic anti-MET antibodies cross-reacted with mouse MET, and to compare them to our human/mouse equivalent anti-MET antibodies, we performed an ELISA assay. Since all prior art antibodies were obtained or engineered with a mouse IgG/A format, we employed the mouse IgG/A version of 71G3, 71D6 and 71G2. Human or mouse MET ECD was immobilized in solid phase (100 ng/well in a 96-well plate) and exposed to increasing concentrations of antibodies (0-40 nM) in solution. […] Among the antibodies tested, only 71G3, 71D6 and 71G2 bound to both human and mouse MET, and they did so with indistinguishable affinities and capacities.

mouse MET ECD [9] = molecular target: T4, mouse MET ECD (mouse, UniProt P16056 25-931); test: ELISA, mouse-format mAb on MET ECD
T4 construct: range 1-931; recombinant ECD; also called mMET; mouse MET extracellular domain
Method: as §2

monkey MET ECD = molecular target: T5, monkey MET ECD (cynomolgus monkey, UniProt A0A2K5UM36 25-932); test: ELISA: MET ECD immobilized (100 ng/well), mAb in human IgG1/lambda format in solution (0-40 nM), HRP anti-human Fc
T5 construct: also called simian MET; cynomolgus monkey MET
T5 sequence (A0A2K5UM36 entry or part of it limits assumed): as the sequence (A0A2K5 entry or part of it limits assumed) above
Source text: as §1

mouse MET ECD [10] = molecular target: T4, mouse MET ECD; test: as above
Source text: as §1

[11] = molecular target: human MET ECD mutant J (mutations 6, 7) (human) (UniProt P08581); test: ELISA on mutant human MET ECD
[12] = molecular target: human MET ECD mutant I (mutations 6, 7, 8) (human) (UniProt P08581); test: ELISA on mutant human MET ECD
rat MET ECD (rat) = rat MET ECD (rat) (UniProt P97523); test: ELISA: MET ECD immobilized (100 ng/well), mAb in human IgG1/lambda format in solution (0-40 nM), HRP anti-human Fc
rat MET ECD (rat), sequence (P97523 25-931 limits assumed, form in doubt): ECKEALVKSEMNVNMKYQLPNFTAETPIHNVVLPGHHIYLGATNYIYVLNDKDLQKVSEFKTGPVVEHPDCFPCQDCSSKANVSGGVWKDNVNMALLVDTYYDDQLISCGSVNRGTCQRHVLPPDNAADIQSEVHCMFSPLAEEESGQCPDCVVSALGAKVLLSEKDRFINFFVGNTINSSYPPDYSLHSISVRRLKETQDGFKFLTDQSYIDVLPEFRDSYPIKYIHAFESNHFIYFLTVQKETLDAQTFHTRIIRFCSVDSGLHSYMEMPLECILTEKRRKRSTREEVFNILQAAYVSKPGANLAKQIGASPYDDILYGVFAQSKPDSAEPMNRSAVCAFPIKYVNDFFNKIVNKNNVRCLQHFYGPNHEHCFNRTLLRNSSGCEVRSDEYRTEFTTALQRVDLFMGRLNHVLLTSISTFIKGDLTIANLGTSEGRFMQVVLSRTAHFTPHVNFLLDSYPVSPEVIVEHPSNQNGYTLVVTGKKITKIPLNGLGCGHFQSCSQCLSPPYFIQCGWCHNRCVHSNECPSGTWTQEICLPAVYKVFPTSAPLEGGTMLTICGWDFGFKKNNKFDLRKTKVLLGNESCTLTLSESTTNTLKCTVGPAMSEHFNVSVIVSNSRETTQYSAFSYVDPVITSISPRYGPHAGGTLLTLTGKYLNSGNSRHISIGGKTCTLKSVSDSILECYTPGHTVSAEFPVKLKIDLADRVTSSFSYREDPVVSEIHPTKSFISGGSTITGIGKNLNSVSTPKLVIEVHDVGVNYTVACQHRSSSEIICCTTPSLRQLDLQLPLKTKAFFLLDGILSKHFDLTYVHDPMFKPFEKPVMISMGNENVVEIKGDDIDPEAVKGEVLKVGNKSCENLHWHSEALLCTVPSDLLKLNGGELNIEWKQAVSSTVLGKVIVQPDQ

mouse MET ECD [13] = molecular target: T4, mouse MET ECD; test: ELISA on MET ECD

Molecule | EC50 (read off the curve) (human MET ECD [1]) [nM] | EC50 (read off the curve) [2] [nM] | EC50 (human MET ECD [3]) [nM] | EMAX [4] [% CTR] | MLP29 MET act. EMAX [5] [% HGF] | A549 MET act. EMAX [6] [% HGF] | EMAX [7] [% CTR] | EC50 (human MET ECD [8]) [nM] | EMAX (human MET ECD [8]) [OD450] | EC50 (mouse MET ECD [9]) [nM] | EMAX (mouse MET ECD [9]) [OD450] | EC50 (read off the curve) (monkey MET ECD) [nM] | EC50 (read off the curve) (mouse MET ECD [10]) [nM] | % binding (EMAX) vs WT MET ECD [11] [%] | % binding (EMAX) vs WT MET ECD [12] [%] | EC50 (read off the curve) (rat MET ECD (rat)) [nM] | EC50 (mouse MET ECD [13]) [nM]
5D5 anti-human MET antibody, human IgG1/lambda format | 0.2 | 0.3 |  |  |  |  |  |  |  |  |  |  |  |  |  |  | 
B1 |  |  | 0.038 | 119 | 103 | 98.3 | 122 | 0.042 | 2.69 | 0.044 | 2.94 |  |  |  |  |  | 
B2 | ~0.1 |  |  |  |  |  |  |  |  |  |  | ~0.04 | ~0.03 | 89 | 100 | 0.1 | 
B3 |  |  |  | 110 | 91.9 | 90.8 | 116 | 0.058 | 3.11 |  | 3.06 |  |  |  |  |  | 0.062
B4 |  |  | 0.113 | 128 | 102 | 102 | 142 | 0.098 | 2.86 | 0.091 | 2.96 |  |  |  |  |  | 0.109
